# Measured values published in publication PMC4940744, “Iron(II) supramolecular helicates interfere with the HIV-1 Tat–TAR RNA interaction critical for viral replication”.
# T1: ADP-1 polypeptide (Tat RNA-binding region) (HIV-1, UniProt P04608 37-72)
# T1 chain: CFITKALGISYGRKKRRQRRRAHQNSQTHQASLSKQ
# Molecular target: T1, ADP-1 polypeptide (Tat RNA-binding …)
# Assay: EMSA; no helicate; EMSA: 50 mM Tris-HCl pH 8.0, 50 mM KCl, 100 mM DTT, 0.05% Triton X-100, 10 min on ice; 15% PAA gel, 0.5x TB, 5 C
# Details: label: 5'-32P; hairpin with 3-nt UCU bulge
binder,measurement,value
GGCCAGAUCUGAGCCUGGGAGCUCUCUGGCC (structured_RNA) [TAR RNA],binding result,binds
